Targets include HLA-B*18:01; HLA-B*40:02; HLA-B*44:03; HLA-B*44:02; HLA-B*45:01; HLA-B*40:01; HLA-A*68:02; HLA-A*02:01; HLA-A*02:06; HLA-A*02:03; HLA-A*02:02.
Holding throughout (assay): IEDB peptide-MHC binding, purified MHC/competitive/radioactivity; filed as Kd, often an IC50 or EC50 that approximates it; ≥ and ≤ were set here for values at or beyond the usual limits of such assays
The target of another assay is HLA-A*26:01. To be noted: source organism: Dengue virus 2 Jamaica/1409/1983.
Where [1] appears, read: source organism: SARS coronavirus Tor2.
The mark [2] stands for this setting: source organism: Lassa virus Josiah.
Setting [3] is: source organism: Lymphocytic choriomeningitis virus (strain Armstrong).
Setting [4] is: source organism: Mammarenavirus choriomeningitidis.
[5] abbreviates: source organism: Trypanosoma cruzi.
Where [6] appears, read: source organism: Lymphocytic choriomeningitis virus (strain WE).
The mark [7] stands for this setting: source organism: Hepacivirus hominis.

This passage reports Kd results from the Immune Epitope Database (IEDB).

As to NEYRQYLDAY, the Kd in the assay with HLA-B*18:01 (setting [1]) is 253 nM; with HLA-B*40:02 (setting [1]), 632 nM; in the assay with HLA-B*44:03 (setting [1]), 83.2 nM; with HLA-B*44:02 (setting [1]), 1990 nM; in the assay with HLA-B*45:01 (setting [1]) it was 4930 nM; with HLA-B*40:01 (setting [1]), not below 21900 nM.

Regarding AELLNNQFGT, the Kd was not below 70400 nM in the assay with HLA-B*18:01 (setting [2]); 1120 nM with HLA-B*40:02 (setting [2]); 16600 nM with HLA-B*44:03 (setting [2]); 3240 nM with HLA-B*44:02 (setting [2]); 11400 nM in the assay with HLA-B*45:01 (setting [2]); 2320 nM in the assay with HLA-B*40:01 (setting [2]).

For AEVQIDRLI, the dissociation constant Kd with HLA-B*18:01 (setting [1]) was not below 77500 nM; with HLA-B*40:02 (setting [1]), 92.4 nM; with HLA-B*44:03 (setting [1]), 94 nM; in the assay with HLA-B*44:02 (setting [1]), 90.1 nM; in the assay with HLA-B*45:01 (setting [1]) it was 985 nM; with HLA-B*40:01 (setting [1]) it was 10900 nM.

ETACLGKSYA: the Kd was 7.48 nM with HLA-A*68:02 (source organism: Dengue virus 2 Jamaica/1409/1983) and 163 nM with HLA-A*26:01.

REFVATTRTL: the Kd is 14100 nM with HLA-B*18:01 (setting [3]); 69.9 nM with HLA-B*40:02 (setting [3]); 7560 nM in the assay with HLA-B*44:03 (setting [3]); 3180 nM with HLA-B*44:02 (setting [3]); not below 30500 nM with HLA-B*45:01 (setting [3]); 8640 nM with HLA-B*40:01 (setting [3]).

Regarding EDQFLPFMS, the Kd was not below 77500 nM with HLA-B*18:01 (setting [4]); 7960 nM with HLA-B*40:02 (setting [4]); not below 39600 nM with HLA-B*44:03 (setting [4]); 17400 nM in the assay with HLA-B*44:02 (setting [4]); not below 23900 nM with HLA-B*45:01 (setting [4]); 5670 nM with HLA-B*40:01 (setting [4]).

As for AEQLMSLAA, the Kd with HLA-B*18:01 (setting [4]) was 3640 nM; in the assay with HLA-B*40:02 (setting [4]), 3.31 nM; with HLA-B*44:03 (setting [4]), 4480 nM; with HLA-B*44:02 (setting [4]), 214 nM; with HLA-B*45:01 (setting [4]) it was 1.7 nM; with HLA-B*40:01 (setting [4]), 1850 nM.

Regarding REVKTIKVF, the Kd was determined as 4000 nM with HLA-B*18:01 (setting [1]); 54.3 nM with HLA-B*40:02 (setting [1]); 87.8 nM with HLA-B*44:03 (setting [1]); 103 nM with HLA-B*44:02 (setting [1]); 6750 nM with HLA-B*45:01 (setting [1]); 219 nM with HLA-B*40:01 (setting [1]).

For the sequence FANHAFTLV, the Kd with HLA-A*02:01 (setting [5]) is 68.7 nM; with HLA-A*02:06 (setting [5]) it was 1.2 nM; with HLA-A*68:02 (setting [5]), 23.2 nM; in the assay with HLA-A*02:03 (setting [5]), 0.226 nM; with HLA-A*02:02 (setting [5]) it was 32.7 nM.

As for KEPVESCPL, the Kd with HLA-B*18:01 (setting [6]) was not below 77500 nM; with HLA-B*40:02 (setting [6]), 155 nM; in the assay with HLA-B*44:03 (setting [6]), not below 78100 nM; with HLA-B*44:02 (setting [6]), not below 77900 nM; in the assay with HLA-B*45:01 (setting [6]) it was not below 58400 nM; with HLA-B*40:01 (setting [6]) it was 1920 nM.

Consider VEFLKDAWEI, for which the Kd in the assay with HLA-B*18:01 (setting [1]) turned out to be 3720 nM; with HLA-B*40:02 (setting [1]), 77.4 nM; with HLA-B*44:03 (setting [1]) it was 614 nM; with HLA-B*44:02 (setting [1]), 641 nM; with HLA-B*45:01 (setting [1]), 4000 nM; with HLA-B*40:01 (setting [1]) it was 965 nM.

Take SDYDYYRYNL: the Kd with HLA-B*18:01 (setting [1]) is not below 70500 nM; in the assay with HLA-B*40:02 (setting [1]), not below 51600 nM; in the assay with HLA-B*44:03 (setting [1]), 9730 nM; in the assay with HLA-B*44:02 (setting [1]), 12400 nM; in the assay with HLA-B*45:01 (setting [1]) it was not below 25000 nM; with HLA-B*40:01 (setting [1]), not below 69600 nM.

As for EEAALCTFLL, the Kd in the assay with HLA-B*18:01 (setting [1]) was 163 nM; with HLA-B*40:02 (setting [1]) it was 17.7 nM; with HLA-B*44:03 (setting [1]), 13.1 nM; in the assay with HLA-B*44:02 (setting [1]), 21.6 nM; with HLA-B*45:01 (setting [1]), 89 nM; with HLA-B*40:01 (setting [1]), 43.7 nM.

For the sequence REGLLNYSM, the dissociation constant Kd with HLA-B*18:01 (setting [4]) is 148 nM; in the assay with HLA-B*40:02 (setting [4]) it was 17.7 nM; with HLA-B*44:03 (setting [4]), 1220 nM; with HLA-B*44:02 (setting [4]) it was 1180 nM; in the assay with HLA-B*45:01 (setting [4]) it was 2460 nM; in the assay with HLA-B*40:01 (setting [4]), 1190 nM.

Regarding KLRGMGFNAV, the dissociation constant (Kd) was 454 nM with HLA-A*02:01 (setting [7]); 496 nM with HLA-A*02:06 (setting [7]); not below 40600 nM with HLA-A*68:02 (setting [7]); 2.05 nM with HLA-A*02:03 (setting [7]); 161 nM in the assay with HLA-A*02:02 (setting [7]).

What is called Kd is the free concentration of one partner at which half of the binding sites on the other are occupied at equilibrium, for simple one-to-one binding.
